The target in one experiment is T1, human FcγRIIIa(F) (human, UniProt P08637 17-208, limits assumed).
T1 construct: also called FcgRIIIaF; FcγRIIIa allotype F158
The experiment in a line: SPR (Biacore), captured antibody, FcγR analyte; bound/captured amount vs control x100.

In another experiment the target is T2, mouse FcRn (mouse, UniProt Q61559 22-297, limits assumed).
T2 construct: Soluble analyte in Biacore; also called mFcRn
T2 sequence (looked up) 1: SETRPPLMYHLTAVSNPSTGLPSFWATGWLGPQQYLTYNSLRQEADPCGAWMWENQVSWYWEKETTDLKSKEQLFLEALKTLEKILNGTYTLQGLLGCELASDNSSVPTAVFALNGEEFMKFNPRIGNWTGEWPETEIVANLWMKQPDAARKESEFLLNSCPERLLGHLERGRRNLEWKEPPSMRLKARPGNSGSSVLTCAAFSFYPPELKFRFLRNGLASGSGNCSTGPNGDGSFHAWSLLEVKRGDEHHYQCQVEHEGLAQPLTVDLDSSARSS
T2 sequence (looked up) 2: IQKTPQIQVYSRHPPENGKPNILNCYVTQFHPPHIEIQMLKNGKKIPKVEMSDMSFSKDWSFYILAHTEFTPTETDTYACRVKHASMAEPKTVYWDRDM
Description: SPR (Biacore), mouse FcRn, pH 7.0. A general note: Surface plasmon resonance follows binding to a sensor surface in real time, without labels.

For another experiment, the target named is T3, mouse FcγRIV (mouse).
T3 construct: Bought soluble receptor; also called mFcgRIV; mFcgR IV
Description: SPR (Biacore), antibody captured on Protein L, mouse FcγR as analyte, pH 7.4, 25 C.

T3 sequence (A0A0B4J1G0 21-203): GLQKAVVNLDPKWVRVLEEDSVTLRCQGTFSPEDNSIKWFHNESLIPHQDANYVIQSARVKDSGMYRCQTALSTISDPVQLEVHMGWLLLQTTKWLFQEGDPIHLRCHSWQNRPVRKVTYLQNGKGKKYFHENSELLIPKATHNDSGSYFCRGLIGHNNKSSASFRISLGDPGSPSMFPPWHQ
T1 sequence (P08637 other isoform, or with tags, fused parts or gaps limits assumed): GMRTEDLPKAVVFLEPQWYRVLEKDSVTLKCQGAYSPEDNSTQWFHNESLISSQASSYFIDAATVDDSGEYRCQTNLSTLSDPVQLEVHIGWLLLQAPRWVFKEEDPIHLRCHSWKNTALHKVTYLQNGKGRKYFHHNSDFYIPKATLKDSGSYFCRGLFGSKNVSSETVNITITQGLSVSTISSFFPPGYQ
Description for human FcγRIIIa(F): Interaction between each modified antibody and Fcγ receptor prepared in the manner described above was analyzed using the Biacore T100 (GE Healthcare), Biacore T200 (GE Healthcare), Biacore A100 or Biacore 4000. HBS-EP+ (GE Healthcare) was used for the running buffer, and measurements were carried out at 25° C. The chips used were chips in which antigen peptides, Protein A (Thermo Scientific), Protein A/G (Thermo Scientific) or Protein L (ACTIGEN or BioVision) were immobilized on the Series S Sensor Chip CM5 (GE Healthcare) or Series S Sensor Chip CM4 (GE Healthcare) by amine coupling, or chips in which preliminarily biotinylated antigen peptides were allowed to interact and then immobilized on the Series S Sensor Chip SA (certified) (GE Healthcare). The target antibodies were captured on these sensor chips, Fcγ receptor diluted with the running buffer was allowed to interact, followed by measurement of the amount of bound antibody. The amounts bound were compared between antibodies. However, since the amount of Fcγ receptor bound depends on the amount of captured antibody, the values used for comparison were first corrected by dividing the amount of Fcγ receptor bound by the captured amount of each antibody. Through reaction with 10 mM glycine-HCl at pH 1.5, the sensor chips were regenerated by washing off antibody captured on the sensor chips and used repeatedly.
Description for mouse FcRn: The binding between antibody and mouse FcRn was kinetically analyzed using Biacore T100 (GE Healthcare). An appropriate amount of protein L (ACTIGEN) was immobilized onto Sensor chip CM4 (GE Healthcare) by the amino coupling method, and the chip was allowed to capture an antibody of interest. Then, diluted FcRn solutions and running buffer (as a reference solution) were injected to allow mouse FcRn to interact with the antibody captured on the sensor chip. The running buffer used contains 50 mmol/l sodium phosphate, 150 mmol/l NaCl, and 0.05% (w/v) Tween20 (pH 7.4). FcRn was diluted using each buffer. The sensorchip was regenerated using 10 mmol/l glycine-HCl (pH 1.5). Assays were carried out exclusively at 25 degrees C. The association rate constant ka (1/Ms) and dissociation rate constant kd (1/s), both of which are kinetic parameters, were calculated based on the sensorgrams obtained in the assays, and the KD (M) of each antibody for mouse FcRn was determined from these values. Each parameter was calculated using Biacore T100 Evaluation Software (GE Healthcare).
Description for mouse FcγRIV: Binding activity between the antibodies and mouse FcγRI, FcγRII, FcγRIII and FcγRIV (R&D Systems, Sin θ Biological) (hereinafter referred to as mouse FcγRs) was evaluated using the Biacore T100 or T200 (GE Healthcare). The antibodies being tested were captured by Protein L (ACTIGEN) that was immobilized in suitable amounts on the CM4 Sensor Chip (GE Healthcare) by amine coupling. Next, the diluted mouse FcγRs and a running buffer used as a blank were injected to allow interaction with the antibody captured on the sensor chip. A buffer consisting of 20 mmol/L ACES, 150 mmol/L NaCl and 0.05% (w/v) Tween 20 (pH 7.4) was used for the running buffer, and this buffer was also used to dilute the mouse FcγRs. 10 mmol/L glycine-HCl (pH 1.5) was used to regenerate the sensor chip. All measurements were carried out at 25° C.

B1: GpH7-B3 D265S/GpL16-k0 (antibody, human IgG1)
heavy: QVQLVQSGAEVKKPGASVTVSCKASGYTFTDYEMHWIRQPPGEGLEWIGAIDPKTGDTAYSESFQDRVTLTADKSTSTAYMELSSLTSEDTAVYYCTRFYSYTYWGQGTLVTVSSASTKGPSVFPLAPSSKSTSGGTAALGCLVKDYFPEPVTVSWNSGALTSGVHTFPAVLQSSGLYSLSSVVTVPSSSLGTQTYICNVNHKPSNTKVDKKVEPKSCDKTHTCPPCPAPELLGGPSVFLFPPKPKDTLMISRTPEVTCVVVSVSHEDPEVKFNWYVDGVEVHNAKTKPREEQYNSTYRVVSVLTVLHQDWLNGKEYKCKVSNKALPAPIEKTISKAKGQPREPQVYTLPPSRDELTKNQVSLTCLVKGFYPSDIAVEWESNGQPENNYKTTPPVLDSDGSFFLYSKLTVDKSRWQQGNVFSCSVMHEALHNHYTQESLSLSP
light: DIVMTQSPLSLPVTPGEPASISCQASESLVHSNRNTYLHWYLQKPGQSPQLLIYKVSNRFSGVPDRFSGSGSGTDFTLKISRVEAEDVGVYYCSQNTHVPPTFGQGTKVEIE
notes: B3 variant of anti-glypican-3 IgG1; substitution in EU numbering; also called B3 variant
In the case of B1, the relative binding activity with human FcγRIIIa(F) was 2 % of GpH7-B3/GpL16-k0.

B2: antibody with mPM1H-mIgG1 heavy chain and L(WT)-CK light chain (antibody)
heavy: DVQLQESGPVLVKPSQSLSLTCTVTGYSITSDHAWSWIRQFPGNKLEWMGYISYSGITTYNPSLKSRISITRDTSKNQFFLQLNSVTTGDTSTYYCARSLARTTAMDYWGQGTSVTVSSAKTTPPSVYPLAPGSAAQTNSMVTLGCLVKGYFPEPVTVTWNSGSLSSGVHTFPAVLQSDLYTLSSSVTVPSSTWPSETVTCNVAHPASSTKVDKKIVPRDCGCKPCICTVPEVSSVFIFPPKPKDVLTITLTPKVTCVVVDISKDDPEVQFSWFVDDVEVHTAQTQPREEQFNSTFRSVSELPIMHQDWLNGKEFKCRVNSAAFPAPIEKTISKTKGRPKAPQVYTIPPPKEQMAKDKVSLTCMITDFFPEDITVEWQWNGQPAENYKNTQPIMDTDGSYFVYSKLNVQKSNWEAGNTFTCSVLHEGLHNHHTEKSLSHSPGK
light: not shown
notes: Natural mouse IgG1 constant region; In the Biacore assays the heavy chain was paired with L(WT)-CK; also called mPM1-mIgG1; copies: 2 + 2
In the case of B2, in the experiment with mouse FcRn, the binding result was “no binding”. Moreover, in the experiment with mouse FcγRIV, the “BINDING AMOUNT (RU)” value was -3.5 RU.
